Measured values as given in patent US7759464.
One block for each binder: values may come before it.

Experiments:
[1] = target: monoclonal anti-idiotypic antibody MMA383; assay: sandwich ELISA on wells coated with anti-idiotypic antibody MMA383, detected with anti-human IgG+A+M peroxidase
[2] = target: monoclonal anti-idiotypic antibody MMA383; assay: sandwich ELISA on wells coated with anti-idiotypic antibody MMA383; evaluated at EC50, normalized on IGN311 wt.

Bottom (four parameter sigmoid fit) [1]: 96.1
EC50 [1]: 0.0638 µg/mL
Log EC50 [1]: 1.8 log(ng/ml)
Top (four parameter sigmoid fit) [1]: 2060
% (binding activity normalized on IGN311 wt.) [2]: 100%
B1: IGN311 wt. (antibody, V domains shown)
VH: EVQLLESGGGLVQPGGSLRLSCAASGFTFSDYYMYWVRQAPEKRLEWVAYISNGGGSSHYVDSVKGRFTISRDNSKNTLYLQMNSLRAEDTALYHCARGMDYGAWFAYWGQGTLVTVSS
VL: DIVMTQSPLSLPVTPGEPASISCRSSQSIVHSNGNTYLEWYLQKPGQSPQLLISKVSNRFSGVPDRFSGSGSGTDFTLKISRVEAEDVGVYYCFQGSHVPFTFGQGTKLEIK

Bottom (four parameter sigmoid fit) [1]: 77
EC50 [1]: 0.0688 µg/mL
Log EC50 [1]: 1.84 log(ng/ml)
Top (four parameter sigmoid fit) [1]: 2100
% (binding activity normalized on IGN311 wt.) [2]: 108%
B2: IGN312 Glyco I (antibody, V domains shown)
VH: B1 VH
VL: B1 VL
modifications: bi-sected hybrid type N-glycosylation pattern in the Fc region (constant part of the heavy chain, not in this VH piece)
